We go through two molecules from patent publication US20220313738A1.

Substitutions are numbered along the chain they refer to.

The target of this assay is Jurkat-M663, Jurkat-M665 and Jurkat-M666 (ISD-modified BCMA CARs M663, M665, M666). In words: cell-based or functional assay.

B1: wildtype SIV Nef, Q02840 1-223 (protein)
chain: MGSSNSKRQQQGLLKLWRGLRGKPGADWVLLSDPLIGQSSTVQEECGKALKKSWGKGKMTPDGRRLQEGDTFDEWDDDEEEVGFPVQPRVPLRQMTYKLAVDFSHFLKSKGGLDGIYYSERREKILNLYALNEWGIIDDWQAYSPGPGIRYPRVFGFCFKLVPVDLHEEARNCERHCLMHPAQMGEDPDGIDHGEVLVWKFDPKLAVEYRPDMFKDMHEHAKR
The molecule B1 returned a relative ISD-modified CAR positive rate (FACS), days 6, 7 and 8 of 41.2 to 69.8%.

B2: SIV Nef M116, Q02840 1-223 (protein)
chain: B1 chain with L178A, M179A
Molecule B2 registered a relative ISD-modified CAR positive rate (FACS), days 6, 7 and 8 of 44.6 to 64.9%.
